Assay results from patent publication US20220372155A1 (LYVGEN BIOPHARMA, published 2022).

How the values were obtained:
[1] = target: T1, human CD40 expressed on CHO cells (human, UniProt P25942 21-277); experiment: FACS, CHO cells
T1 construct: whole, on cells; also used for the reporter cells over-expressing human CD40; also called cellular CD40; CHO-CD40 cells

[2] = target: T2, human B7H4 expressed on CHO cells (human, UniProt Q7Z7D3 25-282); experiment: FACS, CHO cells
T2 construct: whole, on cells; also called VCTN1
T2 sequence (looked up): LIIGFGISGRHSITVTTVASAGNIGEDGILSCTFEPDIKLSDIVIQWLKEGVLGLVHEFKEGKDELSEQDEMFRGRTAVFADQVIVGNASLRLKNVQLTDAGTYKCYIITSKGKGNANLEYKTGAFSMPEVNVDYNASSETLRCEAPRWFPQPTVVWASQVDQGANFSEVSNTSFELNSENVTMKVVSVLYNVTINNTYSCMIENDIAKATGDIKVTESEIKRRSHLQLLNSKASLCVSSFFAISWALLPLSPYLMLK

[3] = target: T3, Human CD40 ECD protein (mouse IgG2a Fc tag) (human, UniProt P25942 21-193); experiment: bridging ELISA, coated B7H4, soluble CD40 ECD-mFc
T3 construct: extracellular domain; also called Human CD40-msFc; human recombinant CD40; not shown: mouse IgG2a Fc tag
Description: Anti-B7H4/CD40 bi-specific antibodies were analyzed by ELISA for their simultaneous binding to recombinant human B7H4 and human CD40. Briefly, human B7H4 protein was diluted and coated onto an ELISA plate with a volume of […] by incubation at 4° C. overnight. The next day, the plate was blocked by PBST-BSA buffer, then serially diluted samples of anti-B7H4/CD40 bi-specific antibodies were pipetted into appropriate wells at 50 μL/well, and the plate was incubated for 1 h followed by Washing. Human CD40 ECD protein (mouse IgG2a Fc tag) was added into the plate at 50 μL/well. After 1-hour incubation at room temperature, HRP-conjugated anti-mouse IgG (H+L) antibody was added into the plate at 100 μL/well. The plate was incubated for 1 hour at room temperature followed by washing. TMB substrate solution was added at 100 μL/well and the color development was stopped by adding 100 uL/well Stop Solution (2N H2SO4). Absorbance at 450 nm and 620 nm was read by Tecan F200 Pro plate reader. GraphPad 7.0, “[Agonist] vs. response—Variable slope (four parameters)” was used to plot the binding data and calculate binding EC50 values.

Measured: binding result

T1 sequence (P25942 21-277): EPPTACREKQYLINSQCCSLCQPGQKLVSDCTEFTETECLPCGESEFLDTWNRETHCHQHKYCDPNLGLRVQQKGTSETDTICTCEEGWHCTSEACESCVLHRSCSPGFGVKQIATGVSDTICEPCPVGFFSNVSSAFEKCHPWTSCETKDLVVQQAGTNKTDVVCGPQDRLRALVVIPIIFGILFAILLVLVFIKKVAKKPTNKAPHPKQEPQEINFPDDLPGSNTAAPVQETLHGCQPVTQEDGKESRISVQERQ
T3 sequence (P25942 21-193): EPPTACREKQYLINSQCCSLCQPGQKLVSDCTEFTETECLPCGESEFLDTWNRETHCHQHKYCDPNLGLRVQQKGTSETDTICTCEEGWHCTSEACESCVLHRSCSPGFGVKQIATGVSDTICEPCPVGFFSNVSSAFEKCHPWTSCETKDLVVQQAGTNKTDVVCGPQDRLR

B1: Ly487 (bispecific antibody, human IgG1, kappa)
heavy: EVQLVESGGGLVKPGGSLKLSCAASGFTFSDSGMHWVRQAPEKGLEWITYINSGSSTIYYADSVKGRFTISRDNAKNTLFLQMTSLRSEDTAMYYCARGRGYAMDYWGQGTSVTVSSASTKGPSVFPLAPSSKSTSGGTAALGCLVKDYFPEPVTVSWNSGALTSGVHTFPAVLQSSGLYSLSSVVTVPSSSLGTQTYICNVNHKPSNTKVDKKVEPKSCDKTHTCPPCPAPELLGPSVFLFPPKPKDTLMISRTPEVTCVVVDVSHEDPEVKFNWYVDGVEVHNAKTKPREEQYNSTYRVVSVLTVLHQDWLNGKEYKCKVSNKALPAPIEKTISKAKGQPREPQVYTLPPSREEMTKNQVSLTCLVKGFYPSDIAVEWESNGQPENNYKTTPPVLDSDGSFFLYSKLTVDKSRWQQGNVFSCSVMHEALHNHYTQKSLSLSPGGGGGSGGGGSGGGGSGGGGSQVQLVESGGGLVQPGGSLKLSCATSGFNFNDYFMNWVRQASGKGLEWVGQIRNKNYNYATYYTESLEGRVTISRDDSKNTAYLQMNSLKTEDTAVYYCTSYYYDGFADYFDYWGQGTTVTVSSGGGGSGGGGSGGGGSGGGGSDIQMTQSPSSLSASVGDRVTITCKASQNIYIYLNWYQQKPGKAPKLLIYNTNNLQTGVPSRFSGSGSGTDFTLTISSLQPEDFATYYCLQHSSRRTFGGGTKVEIK
light: EIVLTQSPTTMAASPGEKITIFCSASSSISSDFLHWYQQKPGFSPKLLIYRISNLASGVPARFSGSGSGTSYSLTIGTMEAEDVATYYCQQGSNVPRTFGGGTKLEIKRTVAAPSVFIFPPSDEQLKSGTASVVCLLNNFYPREAKVQWKVDNALQSGNSQESVTEQDSKDSTYSLSSTLTLSKADYEKHKVYACEVTHQGLSSPVTKSFNRGEC
notes: Ly366 HC (IgG1 mutated Fc)-TM740 scFv VH-VL + Ly366 LC
binds: all assays above

B2: Ly475 (bispecific antibody, human IgG1, kappa)
heavy: EVQLVESGGDLVKPGGSLKLSCAASGFTFSSYGMSWVRQTPDKRLEWVAAISTGGSYTYYPDSVKGRFTISRDTATNTLYLQMSTLKSEDTAMYYCTRRGATGSWFAYWGQGTLVTVSAASTKGPSVFPLAPSSKSTSGGTAALGCLVKDYFPEPVTVSWNSGALTSGVHTFPAVLQSSGLYSLSSVVTVPSSSLGTQTYICNVNHKPSNTKVDKKVEPKSCDKTHTCPPCPAPELLGPSVFLFPPKPKDTLMISRTPEVTCVVVDVSHEDPEVKFNWYVDGVEVHNAKTKPREEQYNSTYRVVSVLTVLHQDWLNGKEYKCKVSNKALPAPIEKTISKAKGQPREPQVYTLPPSREEMTKNQVSLTCLVKGFYPSDIAVEWESNGQPENNYKTTPPVLDSDGSFFLYSKLTVDKSRWQQGNVFSCSVMHEALHNHYTQKSLSLSPGGGGGSGGGGSGGGGSGGGGSQVQLVESGGGLVQPGGSLKLSCATSGFNFNDYFMNWVRQASGKGLEWVGQIRNKNYNYATYYTESLEGRVTISRDDSKNTAYLQMNSLKTEDTAVYYCTSYYYDGFADYFDYWGQGTTVTVSSGGGGSGGGGSGGGGSGGGGSDIQMTQSPSSLSASVGDRVTITCKASQNIYIYLNWYQQKPGKAPKLLIYNTNNLQTGVPSRFSGSGSGTDFTLTISSLQPEDFATYYCLQHSSRRTFGGGTKVEIK
light: DILMTQSPSSMSVSLGDTVSITCHASQGINNNIGWLQRKPGKSFKGLIYHGTNLEDGVPSRFSGSGSGADYSLTISSLESEDFADYYCVQYVQFPRTFGGGTKLEIKRTVAAPSVFIFPPSDEQLKSGTASVVCLLNNFYPREAKVQWKVDNALQSGNSQESVTEQDSKDSTYSLSSTLTLSKADYEKHKVYACEVTHQGLSSPVTKSFNRGEC
notes: Ly361 HC (IgG1 mutated Fc)-TM740 scFv VH-VL + Ly361 LC
binds: all assays above

B3: Ly483 (bispecific antibody, human IgG1, kappa)
heavy: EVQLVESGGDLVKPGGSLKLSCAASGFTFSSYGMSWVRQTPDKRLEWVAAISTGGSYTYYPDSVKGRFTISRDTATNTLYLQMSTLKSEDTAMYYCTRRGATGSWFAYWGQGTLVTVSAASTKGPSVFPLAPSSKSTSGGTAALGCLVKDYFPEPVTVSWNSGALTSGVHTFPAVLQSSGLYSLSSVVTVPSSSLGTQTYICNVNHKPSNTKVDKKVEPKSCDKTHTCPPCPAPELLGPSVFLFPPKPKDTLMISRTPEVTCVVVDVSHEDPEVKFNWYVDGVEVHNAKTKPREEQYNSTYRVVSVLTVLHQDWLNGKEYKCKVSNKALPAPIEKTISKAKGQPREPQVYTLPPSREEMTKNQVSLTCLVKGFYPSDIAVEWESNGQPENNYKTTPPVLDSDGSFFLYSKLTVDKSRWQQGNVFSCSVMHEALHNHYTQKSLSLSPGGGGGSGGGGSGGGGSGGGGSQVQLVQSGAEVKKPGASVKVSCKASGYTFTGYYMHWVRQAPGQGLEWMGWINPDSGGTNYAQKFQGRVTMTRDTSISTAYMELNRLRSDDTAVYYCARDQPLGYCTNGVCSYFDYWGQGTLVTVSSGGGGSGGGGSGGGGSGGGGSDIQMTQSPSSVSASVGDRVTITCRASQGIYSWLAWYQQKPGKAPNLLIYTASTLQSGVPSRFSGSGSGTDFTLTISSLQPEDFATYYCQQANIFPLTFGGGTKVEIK
light: B2 light
notes: Ly361 HC (IgG1 mutated Fc)-Ly253 scFv VH-VL + Ly361 LC
binds: all assays above

B4: Ly482 (bispecific antibody, human IgG1, kappa)
heavy: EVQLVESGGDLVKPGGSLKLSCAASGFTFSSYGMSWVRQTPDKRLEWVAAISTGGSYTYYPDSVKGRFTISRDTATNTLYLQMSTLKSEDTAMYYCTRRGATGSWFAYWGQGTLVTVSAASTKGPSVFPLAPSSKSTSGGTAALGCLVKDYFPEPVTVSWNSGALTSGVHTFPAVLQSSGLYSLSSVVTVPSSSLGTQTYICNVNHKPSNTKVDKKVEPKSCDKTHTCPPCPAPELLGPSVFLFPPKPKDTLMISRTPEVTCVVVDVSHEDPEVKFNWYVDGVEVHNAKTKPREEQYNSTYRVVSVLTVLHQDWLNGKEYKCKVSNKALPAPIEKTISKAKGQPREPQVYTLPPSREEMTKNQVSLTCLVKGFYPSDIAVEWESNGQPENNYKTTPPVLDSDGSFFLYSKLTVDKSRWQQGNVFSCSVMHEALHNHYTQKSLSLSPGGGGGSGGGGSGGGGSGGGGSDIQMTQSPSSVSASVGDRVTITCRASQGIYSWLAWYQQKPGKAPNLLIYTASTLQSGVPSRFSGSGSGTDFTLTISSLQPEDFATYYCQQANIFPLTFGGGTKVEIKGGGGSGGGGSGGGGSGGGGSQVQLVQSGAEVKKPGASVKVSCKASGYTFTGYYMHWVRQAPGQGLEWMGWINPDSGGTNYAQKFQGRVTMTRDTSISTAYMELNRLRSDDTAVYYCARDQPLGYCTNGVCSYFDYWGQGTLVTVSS
light: B2 light
notes: Ly361 HC (IgG1 mutated Fc)-Ly253 scFv VL-VH + Ly361 LC
binds: all assays above

B5: Ly478 (bispecific antibody, human IgG1, kappa)
heavy: EVQLVESGGDLVKPGGSLKLSCAASGFTFSSYGMSWVRQTPDKRLEWVAAISTGGSYTYYPDSVKGRFTISRDTATNTLYLQMSTLKSEDTAMYYCTRRGATGSWFAYWGQGTLVTVSAASTKGPSVFPLAPSSKSTSGGTAALGCLVKDYFPEPVTVSWNSGALTSGVHTFPAVLQSSGLYSLSSVVTVPSSSLGTQTYICNVNHKPSNTKVDKKVEPKSCDKTHTCPPCPAPELLGPSVFLFPPKPKDTLMISRTPEVTCVVVDVSHEDPEVKFNWYVDGVEVHNAKTKPREEQYNSTYRVVSVLTVLHQDWLNGKEYKCKVSNKALPAPIEKTISKAKGQPREPQVYTLPPSREEMTKNQVSLTCLVKGFYPSDIAVEWESNGQPENNYKTTPPVLDSDGSFFLYSKLTVDKSRWQQGNVFSCSVMHEALHNHYTQKSLSLSPGGGGGSGGGGSGGGGSGGGGSDIQMTQSPSSLSASVGDRVTITCLASEDISNDLAWYQQKPGKAPKLLIYFVDRLLDGVPSRFSGSGSGTDFTLTISSLQPEDFATYYCQQSYKYPPTFGQGTKLEIKGGGGSGGGGSGGGGSGGGGSEVQLVESGGGLVQPGGSLRLSCAASGFTFTNYGLHWVRQAPGKGLEWVSSISPSGGVTYYRDSVKGRFTISRDNSKNTLYLQMNSLRAEDTAVYYCAKPFLGWGGANWIAHWGQGTLVTVSS
light: B2 light
notes: Ly361 HC (IgG1 mutated Fc)-TM559 (printed TM599) scFv VL-VH + Ly361 LC
binds: all assays above

B6: Ly479 (bispecific antibody, human IgG1, kappa)
heavy: EVQLVESGGDLVKPGGSLKLSCAASGFTFSSYGMSWVRQTPDKRLEWVAAISTGGSYTYYPDSVKGRFTISRDTATNTLYLQMSTLKSEDTAMYYCTRRGATGSWFAYWGQGTLVTVSAASTKGPSVFPLAPSSKSTSGGTAALGCLVKDYFPEPVTVSWNSGALTSGVHTFPAVLQSSGLYSLSSVVTVPSSSLGTQTYICNVNHKPSNTKVDKKVEPKSCDKTHTCPPCPAPELLGPSVFLFPPKPKDTLMISRTPEVTCVVVDVSHEDPEVKFNWYVDGVEVHNAKTKPREEQYNSTYRVVSVLTVLHQDWLNGKEYKCKVSNKALPAPIEKTISKAKGQPREPQVYTLPPSREEMTKNQVSLTCLVKGFYPSDIAVEWESNGQPENNYKTTPPVLDSDGSFFLYSKLTVDKSRWQQGNVFSCSVMHEALHNHYTQKSLSLSPGGGGGSGGGGSGGGGSGGGGSEVQLVESGGGLVQPGGSLRLSCAASGFTFTNYGLHWVRQAPGKGLEWVSSISPSGGVTYYRDSVKGRFTISRDNSKNTLYLQMNSLRAEDTAVYYCAKPFLGWGGANWIAHWGQGTLVTVSSGGGGSGGGGSGGGGSGGGGSDIQMTQSPSSLSASVGDRVTITCLASEDISNDLAWYQQKPGKAPKLLIYFVDRLLDGVPSRFSGSGSGTDFTLTISSLQPEDFATYYCQQSYKYPPTFGQGTKLEIK
light: B2 light
notes: Ly361 HC-TM559 scFv VH-VL + Ly361 LC
binds: all assays above
